Positions count from the first letter of the chain named. Where two headings read alike, the source gives them in different places.
T1: 狨猴(marmoset) Tim-3蛋白 (狨猴(marmoset), UniProt F7I881 21-290)
T1 sequence: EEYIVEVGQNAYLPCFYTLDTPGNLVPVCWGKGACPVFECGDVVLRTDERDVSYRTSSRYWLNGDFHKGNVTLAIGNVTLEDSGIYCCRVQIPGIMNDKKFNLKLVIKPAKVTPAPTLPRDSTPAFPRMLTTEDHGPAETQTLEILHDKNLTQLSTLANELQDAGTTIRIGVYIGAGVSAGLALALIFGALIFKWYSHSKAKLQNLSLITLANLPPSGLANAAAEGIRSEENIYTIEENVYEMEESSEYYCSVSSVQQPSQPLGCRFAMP

B1: 人源化ab17抗体 (antibody, human IgG4 S228P, kappa, V domains shown)
VH: EVQLVESGGGLVKPGGSLRLSCAASGFTFSDYYMTWVRQAPGKGLEWVASINYDGRNTYYLDSLKSRFTISRDNAKNSLYLQMNSLRAEDTAVYYCARGYYYYGSSPNYFDYWGQGTLVTVSS
VL: DIQMTQSPSSLSASVGDRVTITCRASENIYSYLTWYQQKPGKSPKLLVYNAKTLAEGVPSRFSGSGSGTQFTLTISSLQPEDFATYYCQQHYGTPLTFGQGTKLEIKR
notes: Humanized, hIgG4-kappa
B2: 人源化ab30抗体 (antibody, human IgG4 S228P, kappa, V domains shown)
VH: B1 VH with A49S
VL: B1 VL with T72S, T85N
notes: Humanized, hIgG4-kappa
B3: 人源化ab18抗体 (antibody, human IgG4 S228P, kappa, V domains shown)
VH: B1 VH
VL: B1 VL with S43A, V48I, Q70D
notes: Humanized, hIgG4-kappa
B4: 人源化ab24抗体 (antibody, human IgG4 S228P, kappa, V domains shown)
VH: B1 VH with S78I
VL: B1 VL
notes: Humanized, hIgG4-kappa
B5: 人源化ab23抗体 (antibody, human IgG4 S228P, kappa, V domains shown)
VH: B1 VH with S78I
VL: B1 VL with T72S, T85N
notes: Humanized, hIgG4-kappa
B6: mab15-c (嵌合抗体, hIgG4-κ) (antibody, V domains shown)
VH: EVKLVESEGGLVQPGSSMKLSCTASGFTFSDYYMTWVRQVPEKGLEWVASINYDGRNTYYLDSLKSRFIISRDNAKNILYLQMSSLKSEDTATYYCARGYYYYGSSPNYFDYWGQGTTLTVSS
VL: DIQMTQSPASLSASVGETVTITCRASENIYSYLTWYQQKQGKSPQLLVYNAKTLAEGVPSRFSGSGSGTQFSLRINSLQPEDFGNYYCQQHYGTPLTFGAGTKLELKR
notes: Chimeric antibody: mab15 variable regions with human IgG4 / kappa constant regions
B7: 人源化ab16 抗体 (antibody, human IgG4 S228P, kappa, V domains shown)
VH: B1 VH
VL: B1 VL with T72S, T85N
notes: Humanized, hIgG4-kappa
B8: 人源化ab32抗体 (全人源化抗体) (antibody, human IgG4 S228P, kappa, V domains shown)
VH: B1 VH with A49S
VL: B1 VL with S43A, V48I, Q70D
notes: Fully humanized (no back mutations), hIgG4-kappa
B9: ABTIM3 (阳性对照抗体) (antibody, V domains shown)
VH: QVQLQQPGAELVKPGASVKMSCKASGYTFTSYNMHWIKQTPGQGLEWIGDIYPGNGDTSYNQKFKGKATLTADKSSSTVYMQLSSLTSEDSAVYYCARVGGAFPMDYWGQGTSVTVSS
VL: DIVLTQSPASLAVSLGQRATISCRASESVEYYGTSLMQWYQQKPGQPPKLLIYAASNVESGVPARFSGSGSGTDFSLNIHPVEEDDIAIYFCQQSRKDPSTFGGGTKLEIK

What was measured:
[1] = target: T2, 人TIM-3 (recombinant antigen of the ELISA of Example 3: TIM-3-hFc captured on goat-anti-hFc, or Tim-3-his … (human, UniProt Q8TDQ0 22-202)); experiment: ELISA on human TIM-3 (Example 3)
T2 construct: extracellular domain; also called 人TIM-3抗原; not shown: a His tag instead if Tim-3-his was coated

[2] = target: T3, 人Tim-3 (antigen, analyte of the Biacore assay of Example 7) (human, UniProt Q8TDQ0 22-199); experiment: SPR, Biacore T200, antibody captured on Protein A, TIM-3 as analyte, 1:1 Langmuir
T3 construct: Antibody captured on Protein A chip, antigen TIM-3 flowed at 0-30 nM; also called 抗原TIM-3

[3] = target: T2, 人TIM-3 (recombinant antigen of the …); experiment: ELISA on human TIM-3, against ABTIM3 as reference
[4] = target: T2, 人TIM-3 (recombinant antigen of the …); experiment: ELISA on human TIM-3 (Example 3); remark: listed apart in the source
[5] = target: T4, 人Tim-3 on CHO-K1 hTim-3+ cells (human, UniProt Q8TDQ0 22-301); experiment: cell ELISA on fixed CHO-K1 hTim-3+ cells (Example 2)
T4 construct: whole, on cells; Mature protein 22-301; also called hTim-3+细胞; 人Tim-3+细胞

[6] = target: T3, 人Tim-3 (antigen, analyte of the Biacore …); experiment: SPR, Biacore, method of Example 7
猕猴(Macaca)Tim-3蛋白 [7] = target: 猕猴(Macaca)Tim-3蛋白 (猕猴(Macaca)); experiment: ELISA (method of Example 3), Fig. 4a
猕猴(Macaca)Tim-3蛋白 [8] = target: 猕猴(Macaca)Tim-3蛋白 (猕猴(Macaca)); experiment: ELISA, against ABTIM3 as reference
狨猴(marmoset) Tim-3蛋白 = target: T1, 狨猴(marmoset) Tim-3蛋白; experiment: ELISA (method of Example 3), Fig. 4b

Binder	EC50 [1] [pM]	EC50 [5] [pM]	further results
B1	212	–	–
B2	233	–	–
B3	198	–	–
B4	243	–	–
B5	210	–	–
B6	183	–	Kd [2]: 310 pM; koff [2]: 0.000106 s⁻¹; kon [2]: 344000 M⁻¹ s⁻¹; fold better than the reference antibody (ratio of EC50, reference/mab15-c) [3]: 2.38 fold; EC50 [4]: 158 pM
B7	145	151	–
B8	184	112	koff [6]: 0.000296 s⁻¹; EC50 (猕猴(Macaca)Tim-3蛋白 [7]): 11000 pM; fold weaker than the positive control antibody (猕猴(Macaca)Tim-3蛋白 [8]): ~100 fold
B9	–	150 to 230	EC50 [4]: 376 pM; EC50 (猕猴(Macaca)Tim-3蛋白 [7]): 140 pM; EC50 (狨猴(marmoset) Tim-3蛋白): 400 pM
